Test results reported in the array DNA melting data of Ke et al..

assay: melting temperature; melt of duplexes; details: sodium 0.0675 M; strand 1 µM

Substance | Tm
CGACGTGCTCCATGTGCTG+CAGCACATTCCGCACGTCG ((((((((...((((((((+))))))))...)))))))) | 45.6 °C
CGACGTGCAATATGTGCTG+CAGCACATCAGGCACGTCG ((((((((...((((((((+))))))))...)))))))) | 48.7 °C
CGACGTGCGCCATGTGCTG+CAGCACATTACGCACGTCG (((((((((..((((((((+))))))))..))))))))) | 52.3 °C
CGACGTGCACCATGTGCTG+CAGCACATAGGGCACGTCG ((((((((.(.((((((((+)))))))).).)))))))) | 51.5 °C
CGACGTGCGGGATGTGCTG+CAGCACATAGTGCACGTCG ((((((((...((((((((+))))))))...)))))))) | 47.9 °C
CGACGTGCGAGATGTGCTG+CAGCACATTATGCACGTCG ((((((((...((((((((+))))))))...)))))))) | 51.6 °C
CGACGTGCAGAATGTGCTG+CAGCACATAATGCACGTCG (((((((((..((((((((+))))))))..))))))))) | 54.2 °C
CGACGTGCATCATGTGCTG+CAGCACATACCGCACGTCG ((((((((...((((((((+))))))))...)))))))) | 46.6 °C
CGACGTGCGTTATGTGCTG+CAGCACATACAGCACGTCG ((((((((..(((((((((+)))))))))..)))))))) | 53.3 °C
CGACGTGCGGAATGTGCTG+CAGCACATGGGGCACGTCG ((((((((...((((((((+))))))))...)))))))) | 52.9 °C
CGACGTGCGTAATGTGCTG+CAGCACATTAAGCACGTCG ((((((((.((((((((((+)))))))))).)))))))) | 56.9 °C
CGACGTGCGTTATGTGCTG+CAGCACATATAGCACGTCG ((((((((..(((((((((+)))))))))..)))))))) | 54.5 °C
CGACGTGCTAAATGTGCTG+CAGCACATGATGCACGTCG ((((((((...((((((((+))))))))...)))))))) | 53.2 °C
CGACGTGCGAGATGTGCTG+CAGCACATGATGCACGTCG ((((((((...((((((((+))))))))...)))))))) | 53.2 °C
CGACGTGCGCCATGTGCTG+CAGCACATCCTGCACGTCG ((((((((...((((((((+))))))))...)))))))) | 47.3 °C
CGACGTGCTCTATGTGCTG+CAGCACATACCGCACGTCG ((((((((..(((((((((+)))))))))..)))))))) | 48.5 °C
CGACGTGCCGTATGTGCTG+CAGCACATGACGCACGTCG ((((((((...((((((((+))))))))...)))))))) | 47.8 °C
CGACGTGCCTCATGTGCTG+CAGCACATTCGGCACGTCG (((((((((..((((((((+))))))))..))))))))) | 53 °C
CGACGTGCGTGATGTGCTG+CAGCACATTGCGCACGTCG (((((((((..((((((((+))))))))..))))))))) | 58 °C
CGACGTGCCCTATGTGCTG+CAGCACATCAGGCACGTCG (((((((((..((((((((+))))))))..))))))))) | 53.8 °C
CGACGTGCCCAATGTGCTG+CAGCACATCTAGCACGTCG ((((((((...((((((((+))))))))...)))))))) | 48.8 °C
CGACGTGCATTATGTGCTG+CAGCACATAACGCACGTCG ((((((((.((((((((((+)))))))))).)))))))) | 53.8 °C
CGACGTGCTAAATGTGCTG+CAGCACATCTGGCACGTCG ((((((((.(.((((((((+)))))))).).)))))))) | 51.1 °C
CGACGTGCGGAATGTGCTG+CAGCACATCTTGCACGTCG ((((((((...((((((((+))))))))...)))))))) | 50.8 °C

Substance | Tm
CGACGTGCTCCATGTGCTG+CAGCACATCTAGCACGTCG (((((((((..((((((((+))))))))..))))))))) | 49.5 °C
CGACGTGCCGGATGTGCTG+CAGCACATATAGCACGTCG ((((((((...((((((((+))))))))...)))))))) | 49.9 °C
CGACGTGCTTGATGTGCTG+CAGCACATAAGGCACGTCG ((((((((.(.((((((((+)))))))).).)))))))) | 52.3 °C
CGACGTGCGGAATGTGCTG+CAGCACATACCGCACGTCG ((((((((((.((((((((+)))))))).)))))))))) | 60.2 °C
CGACGTGCAGTATGTGCTG+CAGCACATCAGGCACGTCG ((((((((...((((((((+))))))))...)))))))) | 50.2 °C
CGACGTGCACTATGTGCTG+CAGCACATCCCGCACGTCG ((((((((...((((((((+))))))))...)))))))) | 42.6 °C
CGACGTGCTAGATGTGCTG+CAGCACATCCTGCACGTCG ((((((((..(((((((((+)))))))))..)))))))) | 54.7 °C
CGACGTGCTTTATGTGCTG+CAGCACATTGCGCACGTCG ((((((((...((((((((+))))))))...)))))))) | 46.4 °C
CGACGTGCTTTATGTGCTG+CAGCACATCCCGCACGTCG ((((((((...((((((((+))))))))...)))))))) | 46.8 °C
CGACGTGCCAGATGTGCTG+CAGCACATGCCGCACGTCG ((((((((...((((((((+))))))))...)))))))) | 49.5 °C
CGACGTGCGGGATGTGCTG+CAGCACATGCTGCACGTCG ((((((((.(.((((((((+)))))))).).)))))))) | 56.9 °C
CGACGTGCCGCATGTGCTG+CAGCACATCTCGCACGTCG ((((((((...((((((((+))))))))...)))))))) | 47.8 °C
CGACGTGCGTAATGTGCTG+CAGCACATCGGGCACGTCG ((((((((...((((((((+))))))))...)))))))) | 49.4 °C
CGACGTGCGGGATGTGCTG+CAGCACATGTCGCACGTCG (((((((((..((((((((+))))))))..))))))))) | 57.8 °C
CGACGTGCCACATGTGCTG+CAGCACATACGGCACGTCG (((((((((..((((((((+))))))))..))))))))) | 53.4 °C
CGACGTGCAGTATGTGCTG+CAGCACATTTAGCACGTCG ((((((((...((((((((+))))))))...)))))))) | 48.6 °C
CGACGTGCAGAATGTGCTG+CAGCACATGCCGCACGTCG ((((((((.(.((((((((+)))))))).).)))))))) | 54.6 °C
CGACGTGCGTGATGTGCTG+CAGCACATTGAGCACGTCG ((((((((...((((((((+))))))))...)))))))) | 54.7 °C
CGACGTGCAGTATGTGCTG+CAGCACATAGCGCACGTCG ((((((((..(((((((((+)))))))))..)))))))) | 51.7 °C
CGACGTGCCTGATGTGCTG+CAGCACATTGGGCACGTCG (((((((((..((((((((+))))))))..))))))))) | 57.1 °C
CGACGTGCGGTATGTGCTG+CAGCACATGACGCACGTCG (((((((((..((((((((+))))))))..))))))))) | 56.6 °C
CGACGTGCTATATGTGCTG+CAGCACATGAGGCACGTCG ((((((((...((((((((+))))))))...)))))))) | 52 °C
CGACGTGCGCGATGTGCTG+CAGCACATTCAGCACGTCG ((((((((...((((((((+))))))))...)))))))) | 51.7 °C
CGACGTGCCGCATGTGCTG+CAGCACATGCCGCACGTCG ((((((((.((((((((((+)))))))))).)))))))) | 58.9 °C

Substance | Tm
CGACGTGCATGATGTGCTG+CAGCACATAGCGCACGTCG ((((((((...((((((((+))))))))...)))))))) | 47.4 °C
CGACGTGCAGTATGTGCTG+CAGCACATACGGCACGTCG ((((((((.((((((((((+)))))))))).)))))))) | 58.3 °C
CGACGTGCGCCATGTGCTG+CAGCACATACCGCACGTCG (((((((((..((((((((+))))))))..))))))))) | 51 °C
CGACGTGCATTATGTGCTG+CAGCACATGCAGCACGTCG ((((((((...((((((((+))))))))...)))))))) | 48.7 °C
CGACGTGCAAGATGTGCTG+CAGCACATTGGGCACGTCG ((((((((...((((((((+))))))))...)))))))) | 51.5 °C
CGACGTGCCAGATGTGCTG+CAGCACATCCGGCACGTCG (((((((((.(((((((((+))))))))).))))))))) | 59.2 °C
CGACGTGCTGCATGTGCTG+CAGCACATGCTGCACGTCG ((((((((.((((((((((+)))))))))).)))))))) | 61.2 °C
CGACGTGCGAAATGTGCTG+CAGCACATGAAGCACGTCG ((((((((...((((((((+))))))))...)))))))) | 59.3 °C
CGACGTGCTCTATGTGCTG+CAGCACATCATGCACGTCG ((((((((...((((((((+))))))))...)))))))) | 48.5 °C
CGACGTGCAATATGTGCTG+CAGCACATACAGCACGTCG ((((((((..(((((((((+)))))))))..)))))))) | 50.3 °C
CGACGTGCCTCATGTGCTG+CAGCACATCCAGCACGTCG ((((((((...((((((((+))))))))...)))))))) | 47.4 °C
CGACGTGCGCGATGTGCTG+CAGCACATCGAGCACGTCG ((((((((.((((((((((+)))))))))).)))))))) | 63.1 °C
CGACGTGCTAGATGTGCTG+CAGCACATAACGCACGTCG ((((((((...((((((((+))))))))...)))))))) | 49.9 °C
CGACGTGCTGTATGTGCTG+CAGCACATATGGCACGTCG ((((((((..(((((((((+)))))))))..)))))))) | 54.4 °C
CGACGTGCGAGATGTGCTG+CAGCACATCCTGCACGTCG ((((((((..(((((((((+)))))))))..)))))))) | 55.6 °C
CGACGTGCCGTATGTGCTG+CAGCACATAACGCACGTCG ((((((((..(((((((((+)))))))))..)))))))) | 52.6 °C
CGACGTGCTAGATGTGCTG+CAGCACATGCTGCACGTCG ((((((((...((((((((+))))))))...)))))))) | 49.3 °C
CGACGTGCGCTATGTGCTG+CAGCACATGCTGCACGTCG ((((((((...((((((((+))))))))...)))))))) | 51.5 °C
CGACGTGCGAAATGTGCTG+CAGCACATCAAGCACGTCG ((((((((...((((((((+))))))))...)))))))) | 52.3 °C
CGACGTGCAAGATGTGCTG+CAGCACATCCCGCACGTCG ((((((((..(((((((((+)))))))))..)))))))) | 52.9 °C
CGACGTGCTGCATGTGCTG+CAGCACATATTGCACGTCG ((((((((...((((((((+))))))))...)))))))) | 49.3 °C
CGACGTGCGTAATGTGCTG+CAGCACATCCTGCACGTCG ((((((((...((((((((+))))))))...)))))))) | 49.7 °C
CGACGTGCCGTATGTGCTG+CAGCACATAATGCACGTCG ((((((((..(((((((((+)))))))))..)))))))) | 50.3 °C
CGACGTGCCGGATGTGCTG+CAGCACATGCGGCACGTCG ((((((((((.((((((((+)))))))).)))))))))) | 62.6 °C
